Measurements published in patent US11352399B2, “Peptide for toll-like receptor (TLR) inhibition and pharmaceutical composition comprising same” (GENESEN CO., LTD., priority 2017, dated 2022).
Primed or numbered codes have the meaning given here. Ends that are not written are not given here. FITC′ = fluorescein isothiocyanate

Key:
hTLR4 (human TLR4) = molecular target: T1, hTLR4 (human TLR4) (Homo sapiens, UniProt O00206); test: SEAP activity (NF-κB activity) in HEK-Blue-hTLR4 cells; type: cell-based; details: for SEAP activity, CPP sequence not linked: 12.5, 25, 50 μM, FIG. 1(b); for NF-κB activity (SEAP activity): together with LPS, FIG. 12(a)
T1 construct: host or cells: HEK-Blue-hTLR4 (HEK293-derived reporter line)
T1 sequence (O00206 24-839): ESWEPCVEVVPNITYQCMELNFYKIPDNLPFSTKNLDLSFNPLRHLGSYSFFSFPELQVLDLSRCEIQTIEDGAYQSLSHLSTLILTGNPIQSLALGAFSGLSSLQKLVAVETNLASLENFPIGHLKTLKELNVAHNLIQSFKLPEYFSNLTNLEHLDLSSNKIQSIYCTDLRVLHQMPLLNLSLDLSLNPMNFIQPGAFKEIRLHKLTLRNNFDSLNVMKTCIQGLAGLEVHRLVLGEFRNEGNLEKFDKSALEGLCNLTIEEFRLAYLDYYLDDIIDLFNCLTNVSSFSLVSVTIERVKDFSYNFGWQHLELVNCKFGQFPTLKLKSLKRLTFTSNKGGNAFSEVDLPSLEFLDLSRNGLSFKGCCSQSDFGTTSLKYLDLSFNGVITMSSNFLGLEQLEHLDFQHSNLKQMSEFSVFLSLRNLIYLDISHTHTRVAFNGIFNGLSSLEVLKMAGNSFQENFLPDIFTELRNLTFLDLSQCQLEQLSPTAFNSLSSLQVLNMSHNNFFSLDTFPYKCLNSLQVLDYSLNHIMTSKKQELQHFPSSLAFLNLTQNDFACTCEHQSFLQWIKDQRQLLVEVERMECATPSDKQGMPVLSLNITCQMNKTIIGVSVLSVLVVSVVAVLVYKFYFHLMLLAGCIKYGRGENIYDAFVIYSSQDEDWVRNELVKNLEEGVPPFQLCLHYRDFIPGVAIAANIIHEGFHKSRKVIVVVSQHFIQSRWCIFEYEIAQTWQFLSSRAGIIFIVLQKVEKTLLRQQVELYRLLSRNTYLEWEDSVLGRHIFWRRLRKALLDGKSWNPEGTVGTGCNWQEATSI
T1 sequence (Q9Y6Y9 17-160 partner limits assumed): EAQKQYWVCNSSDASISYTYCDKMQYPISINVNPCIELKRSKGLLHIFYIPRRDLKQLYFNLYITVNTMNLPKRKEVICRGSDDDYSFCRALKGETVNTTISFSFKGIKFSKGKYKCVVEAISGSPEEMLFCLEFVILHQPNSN
Description: HEK-Blue™-hTLR4 cells were dispensed into 24-well plates (BD Biosciences) to a cell number of 2×10^5 cells/well, and incubation was performed overnight. The next day, the culture was removed and medium replacement was performed. Then, a portion (200 μl) of the culture was transferred to a microcentrifuge tube and heated at 65° C. for 10 minutes using a heating block (FINEPCR. Co., Seoul, Korea). Subsequently, the culture was transferred to 96-well plates (BD Biosciences), and absorbance was measured at 405 nm using the HEK-Blue™ detection kit (InvivoGen) and a microplate reader spectrophotometer (Molecular Devices Inc., Silicon Valley, Calif., USA), to analyze an expression level of SEAP (secreted alkaline phosphatase).
To this end, the inducible secreted embryonic alkaline phosphatase (SEAP) reporter gene was placed under the control of an IL-12 p40 minimal promoter (IL-12 p40 is produced by activation of NF-κB and AP-1 (activator protein 1) after stimulation of TLR4) which contains sites where DNAs of NF-κB and AP-1 bind. Then, HEK-Blue™-hTLR4 cells were treated with varying concentrations of TIP or TIP (TIP W/O CPP), to which CPP is not linked, at 12.5, 25, 50 μM, and then an average value of SEAP activity was calculated to measure TLR4 activity. The results are illustrated in FIGS. 1(a) and 1(b).
The results are illustrated in FIGS. 12(a) and 12(b).

hPBMC cells = test: NO secretion in LPS-treated hPBMC cells; type: cell-based, human; details: together with LPS, FIG. 12(b)
MyD88 = molecular target: T2, MyD88 (Homo sapiens, UniProt Q99836); test: Confocal microscopy of TIP1-FITC and MyD88 in THP1 cells; type: cell-based; details: TIP1-FITC and LPS
T2 construct: endogenous in cells; host or cells: THP1
T2 sequence (Q99836 whole entry): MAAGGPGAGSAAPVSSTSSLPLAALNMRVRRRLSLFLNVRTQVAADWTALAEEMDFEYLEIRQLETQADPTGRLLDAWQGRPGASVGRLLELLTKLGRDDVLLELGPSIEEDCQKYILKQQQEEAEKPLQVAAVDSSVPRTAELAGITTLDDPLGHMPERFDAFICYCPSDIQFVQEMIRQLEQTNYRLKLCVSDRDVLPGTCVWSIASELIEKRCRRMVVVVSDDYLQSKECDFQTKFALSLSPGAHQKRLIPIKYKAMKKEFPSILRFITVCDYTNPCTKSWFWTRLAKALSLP
Description: (§1) RAW 264.7 cells and THP1 cells were dispensed into 24-well plates to a cell number of 2×10^5 cells/well, and then grown in an incubator overnight. Subsequently, combined treatment with TIP1 and LPS was performed. After 24 hours, the RAW 264.7 cells and the THP1 cells were fixed with 3.7% formaldehyde (Sigma-Aldrich Co. LLC) for 15 minutes, and immersed into 0.2% Triton X-100 (AMRESCO, Solon, Ohio, USA) for 15 minutes. Then, washing with PBS was performed three times and blocking with 2% BSA solution was performed. The blocked cells were incubated for 2 hours with TIP1-FITC (25 μM; Peptron, Inc., Daejeon, Korea), p-p65, TLR4, Myd88, TOM20 (1:1000; Santa Cruz Biotechnology Inc.), and NLRP3 (Adipogen) antibodies. Then, washing with PBS was performed three times. Subsequently, the cells were incubated with AlexaFluor […] and/or 488 and/or 546-conjugated secondary antibodies (Invitrogen, Carlsbad, Calif., USA) for 1 hour, and washed three times with PBS. Subsequently, the cells were stained at room temperature for 15 minutes using 5 μM Hoechst 33258 (Sigma-Aldrich Co.), and the number of the fluorescently stained cells was counted using a confocal laser scanning microscope (LSM-700, Carl Zeiss MicroImaging GmbH). The images were analyzed using Zen 2009 software.
(§2) The results are illustrated in FIG. 13.

TLR4 = molecular target: T3, TLR4 (Homo sapiens, UniProt O00206); test: Confocal microscopy of TIP1-FITC and TLR4 in THP1 cells; type: cell-based; details: TIP1-FITC and LPS
T3 construct: endogenous in cells; host or cells: THP1
T3 sequence (O00206 24-839): as the sequence (O00206 24-839) above
Description: as §1, §2

Row | Substance | SEAP activity, CPP sequence not linked (hTLR4 (human TLR4)) | NF-κB activity (SEAP activity) (hTLR4 (human TLR4)) | NO secretion level (hPBMC cells) | also measured
1 | RQIKIWFQNRRMKWKKTIPLLS (TIP2) [used as a control] | – | – | – | LPS-induced SEAP activity (hTLR4 (human TLR4); TIP 12.5, 25, 50 μM, then LPS, FIG. 1(a)): unlike TIP2, TIP1 decreased LPS-induced SEAP activity
2 | TIPLLS (Decoy peptide 2) [TIP2 W/O CPP] | neither TIP1 (TIP1 W/O CPP) nor TIP2 (TIP2 W/O CPP) changed SEAP activity | – | – | –
3 | RQIKIWFQNRRMKWKKSHCR (TIP1-2) | – | also decreased NF-κB activity | also inhibited NO secretion | –
4 | SHCRVLLI (Decoy peptide 1) [TIP1 W/O CPP] | neither TIP1 (TIP1 W/O CPP) nor TIP2 (TIP2 W/O CPP) changed SEAP activity | – | – | –
5 | TIP1-FITC: TIP1 with fluorescein isothiocyanate (FITC) bound to the N-terminus ({FITC′}-RQIKIWFQNRRMKWKKSHCRVLLI) | – | – | – | interaction of TIP1-FITC with MyD88 (MyD88): formed a weak bond; interaction of TIP1-FITC with TLR4 (TLR4): strongly bound to each other
6 | RQIKIWFQNRRMKWKKVLLI (TIP1-3) | – | no or insignificant changes were observed | no or insignificant changes were observed | –
